Measurements: the RNAGym collection of RNA variant scans (doi:10.7554/elife.80360)

B1: HDV Ribozyme (parent)
chain: GGCCGGCAUGGUCCCAGCCUCCUCGCUGGCGCCGGCUGGGCAACAUUCCGAGGGGACCGUCCCCUCGGUAAUGGCGAAUGGGACCCA

Variants of: B1
Assay: self-cleavage, relative activity (ratio to wild type); higher = more cleavage; co-transcriptional

Row | Variant | self-cleavage
1 | GGCCGGCAUGGUCCCAGCCUCCUCGUUGGGGCCGGCUGGGCAACAUUCCGAGGGGACCGUCCCCUCGGUAAUGGCGAAUGGGACCCA [C26U C30G] | 0.0941
2 | GGCCGGCAUGGUCCCAGCCUCCUCGUUGGCGCCGGCUGGGAAACAUUCCGAGGGGACCGUCCCCUCGGUAAUGGCGAAUGGGACCCA [C26U C41A] | 1.15
3 | GGCCGGCAUGGUCCCAGCCUCCUCGUUGGCGCCGGCUGGGCAACAUUCAGAGGGGACCGUCCCCUCGGUAAUGGCGAAUGGGACCCA [C26U C49A] | 1.11
4 | GGCCGGCAUGGUCCCAGCCUCCUCGUUGGCGCCGGCUGGGCAACAUUCGGAGGGGACCGUCCCCUCGGUAAUGGCGAAUGGGACCCA [C26U C49G] | 0.973
5 | GGCCGGCAUGGUCCCAGCCUCCUCGUUGGCGCCGGCUGGGCAACAUUCUGAGGGGACCGUCCCCUCGGUAAUGGCGAAUGGGACCCA [C26U C49U] | 0.89
6 | GGCCGGCAUGGUCCCAGCCUCCUCGUUGGCGCCGGCUGGGCAACAUUCCGAGGGGACCGUACCCUCGGUAAUGGCGAAUGGGACCCA [C26U C61A] | 1.06
7 | GGCCGGCAUGGUCCCAGCCUCCUCGUUGGCGCCGGCUGGGCAACAUUCCGAGGGGACCGUUCCCUCGGUAAUGGCGAAUGGGACCCA [C26U C61U] | 0.941
8 | GGCCGGCAUGGUCCCAGCCUCCUCGUUGGCGCCGGCUGGGCAACAUUCCGAGGGGACCGUCACCUCGGUAAUGGCGAAUGGGACCCA [C26U C62A] | 1.08
9 | GGCCGGCAUGGUCCCAGCCUCCUCGUUGGCGCCGGCUGGGCAACAUUCCGAGGGGACCGUCGCCUCGGUAAUGGCGAAUGGGACCCA [C26U C62G] | 0.618
10 | GGCCGGCAUGGUCCCAGCCUCCUCGUUGGCGCCGGCUGGGCAACAUUCCGAGGGGACCGUCUCCUCGGUAAUGGCGAAUGGGACCCA [C26U C62U] | 1.1
11 | GGCCGGCAUGGUCCCAGCCUCCUCGUUGGCGCCGGCUGGGCAACAUUCCGAGGGGACCGUCCGCUCGGUAAUGGCGAAUGGGACCCA [C26U C63G] | 0.883
12 | GGCCGGCAUGGUCCCAGCCUCCUCGUUGGCGCCGGCUGGGCAACAUUCCGAGGGGACCGUCCCCUGGGUAAUGGCGAAUGGGACCCA [C26U C66G] | 0.861
13 | GGCCGGCAUGGUCCCAGCCUCCUCGUUGGCGCCGGCUGGGCAACAUUCCGAGGGGACCGUCCCCUCGGUAAUGGCGAAUGGGACGCA [C26U C85G] | 1.22
14 | GGCCGGCAUGGUCCCAGCCUCCUCGUUGGCGCCGGCUGGGCAACAUUCCGAGGGGACCGUCCCCUCGGUAAUGGCGAAUGGGACUCA [C26U C85U] | 0.935
15 | GGCCGGCAUGGUCCCAGCCUCCUCGUUGGCCCCGGCUGGGCAACAUUCCGAGGGGACCGUCCCCUCGGUAAUGGCGAAUGGGACCCA [C26U G31C] | 0.542
16 | GGCCGGCAUGGUCCCAGCCUCCUCGUUGGCGCCUGCUGGGCAACAUUCCGAGGGGACCGUCCCCUCGGUAAUGGCGAAUGGGACCCA [C26U G34U] | 0.767

Row | Variant | self-cleavage
17 | GGCCGGCAUGGUCCCAGCCUCCUCGUUGGCGCCGGCUUGGCAACAUUCCGAGGGGACCGUCCCCUCGGUAAUGGCGAAUGGGACCCA [C26U G38U] | 0.616
18 | GGCCGGCAUGGUCCCAGCCUCCUCGUUGGCGCCGGCUGGUCAACAUUCCGAGGGGACCGUCCCCUCGGUAAUGGCGAAUGGGACCCA [C26U G40U] | 1.03
19 | GGCCGGCAUGGUCCCAGCCUCCUCGUUGGCGCCGGCUGGGCAACAUUCCCAGGGGACCGUCCCCUCGGUAAUGGCGAAUGGGACCCA [C26U G50C] | 1
20 | GGCCGGCAUGGUCCCAGCCUCCUCGUUGGCGCCGGCUGGGCAACAUUCCUAGGGGACCGUCCCCUCGGUAAUGGCGAAUGGGACCCA [C26U G50U] | 1.12
21 | GGCCGGCAUGGUCCCAGCCUCCUCGUUGGCGCCGGCUGGGCAACAUUCCGAAGGGACCGUCCCCUCGGUAAUGGCGAAUGGGACCCA [C26U G52A] | 1.14
22 | GGCCGGCAUGGUCCCAGCCUCCUCGUUGGCGCCGGCUGGGCAACAUUCCGAUGGGACCGUCCCCUCGGUAAUGGCGAAUGGGACCCA [C26U G52U] | 0.956
23 | GGCCGGCAUGGUCCCAGCCUCCUCGUUGGCGCCGGCUGGGCAACAUUCCGAGGGGACCGUCCCCUCGAUAAUGGCGAAUGGGACCCA [C26U G68A] | 1.02
24 | GGCCGGCAUGGUCCCAGCCUCCUCGUUGGCGCCGGCUGGGCAACAUUCCGAGGGGACCGUCCCCUCGCUAAUGGCGAAUGGGACCCA [C26U G68C] | 1.03
25 | GGCCGGCAUGGUCCCAGCCUCCUCGUUGGCGCCGGCUGGGCAACAUUCCGAGGGGACCGUCCCCUCGUUAAUGGCGAAUGGGACCCA [C26U G68U] | 1.13
26 | GGCCGGCAUGGUCCCAGCCUCCUCGUUGGCGCCGGCUGGGCAACAUUCCGAGGGGACCGUCCCCUCGGUAAUAGCGAAUGGGACCCA [C26U G73A] | 0.747
27 | GGCCGGCAUGGUCCCAGCCUCCUCGUUGGCGCCGGCUGGGCAACAUUCCGAGGGGACCGUCCCCUCGGUAAUGUCGAAUGGGACCCA [C26U G74U] | 0.777
28 | GGCCGGCAUGGUCCCAGCCUCCUCGUUGGCGCCGGCUGGGCAACAUUCCGAGGGGACCGUCCCCUCGGUAAUGGCGAAUUGGACCCA [C26U G80U] | 0.433
29 | GGCCGGCAUGGUCCCAGCCUCCUCGUUGGCGCCGGCUGGGCAACAUUCCGAGGGGACCGUCCCCUCGGUAAUGGCGAAUGAGACCCA [C26U G81A] | 0.888
30 | GGCCGGCAUGGUCCCAGCCUCCUCGUUGGCGCCGGCUGGGCAACAUUCCGAGGGGACCGUCCCCUCGGUAAUGGCGAAUGUGACCCA [C26U G81U] | 0.439
31 | GGCCGGCAUGGUCCCAGCCUCCUCGUUGGCGCCGGCUGGGCAACAUUCCGAGGGGACCGUCCCCUCGGUAAUGGCGAAUGGCACCCA [C26U G82C] | 0.431
32 | GGCCGGCAUGGUCCCAGCCUCCUCGUAGGCGCCGGCUGGGCAACAUUCCGAGGGGACCGUCCCCUCGGUAAUGGCGAAUGGGACCCA [C26U U27A] | 0.886
